Assay results taken from the supplement of paper PMC12042874.
± gives the uncertainty stated by the source.

Assay: amyloid nucleation score (Sup35N fusion, yeast selection) (log enrichment); library NNK1; higher = more nucleation; inactive = no reads after selection
In short: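 Libraries of peptides of 20 random codons fused to Sup35N were expressed in psi-negative yeast and induced 24 hours with 100 μM copper sulfate. Selection was 7 days at 30°C on medium lacking adenine and uracil, and plasmid inserts were Illumina-sequenced before and after selection. Nucleation score is the DiMSum log enrichment of output over input reads, centred on the mode score of non-aggregating sequences, and sequences with under 100 input reads were left out.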

| Substance | amyloid nucleation score |
| --- | --- |
| PMMLDDTPKRSKQPHWIGGH | -0.584 ± 2.1 |
| PMYWLPIFLS | inactive |
| PNNKE | 0.638 ± 0.33 |
| PPLVHSAHYVMKILKSCN | -1.5 ± 2.7 |
| PPMDIGLLPVRI | -1.69 ± 1.7 |
| PQEFLFHTDQRSGCVITETS | 0.179 ± 0.57 |
| PQVVRRGTHKVGRDNG | 0.186 ± 1.6 |
| PRRHYGLRFGHGHLISVWLR | 0.642 ± 0.41 |
| PRSVVSTEPSGTVGVPKENK | -0.839 ± 0.62 |
| PRTYMIRNWKSTNNSLASPK | -1.09 ± 1.5 |
| PRVLHTSVGFCLFNEYCSTT | 2.45 ± 0.18 |
| PSRNLVRVDPFLGIRQMVSS | -0.096 ± 1 |
| PSSKCGCWTTPEMIEGYRNL | -0.119 ± 0.51 |
| PSSTNMGRDGWLDCQVHTFE | -0.009 ± 0.28 |
| PSTREYFNCTKMAYYCIRRP | -0.005 ± 1.7 |
| PTDRVVLNCM | inactive |
| PTIFFDYAHYQTGRVLMAL | 0.408 ± 0.35 |
| PTPILFCYQRCLGVYYMDET | 0.198 ± 0.4 |
| PTRLLLVSDRVTVHELF | inactive |
| PVDNYFIMTTHDKLNRPGHD | -1.85 ± 1 |
| PVHNRVINRILGSSLEVLEN | -0.123 ± 0.31 |
| PVLWASMVN | -0.243 ± 0.49 |
| PVRVYIGGEDACMKSTKHMY | 5.65 ± 0.085 |
| PVSFRILIVEVGLLCRLGAI | 0.165 ± 0.75 |
| PWISFTKYKTLSYETHPGWF | 0.544 ± 0.79 |

| Substance | amyloid nucleation score |
| --- | --- |
| PYAWSVNC | -0.579 ± 0.4 |
| PYFINST | 1.75 ± 0.53 |
| PYLGHR | -1.55 ± 1.4 |
| PYLSRTRISIVNMCSICGLI | 1.34 ± 0.44 |
| PYTWTTTVPSAPKGLF | 0.096 ± 0.48 |
| PYVEIAWS | -1.19 ± 0.85 |
| PYWLINIQEVTTD | 0.654 ± 0.48 |
| PYYRLHANLPDEKRSTAILI | -0.378 ± 0.55 |
| QAFGRLSLATQPLLMEPRRL | 0.868 ± 0.41 |
| QAKPLMLNV | -0.96 ± 1.9 |
| QAVSRHNGSSVVTVRFKLSP | 1.49 ± 0.52 |
| QCSLRPVPRKDALSFLGLML | -0.363 ± 0.35 |
| QCTVGASMD | 0.169 ± 0.34 |
| QDGPIIFWDMVYFSFYFKH | -0.925 ± 1.2 |
| QDKAVIANNRWTKMCGRLDC | 1 ± 0.59 |
| QDRHYRNAKGSNSCYIRRKS | 1 ± 0.35 |
| QDRYR | 0.156 ± 0.56 |
| QDWHDYLYGKFIGNNYGKYI | 1.44 ± 0.47 |
| QELPFRRSYNLSNCSDNWHS | inactive |
| QERTMVLMLHMYYSGCAILM | 0.761 ± 0.56 |
| QESEMVCDLSGMAFLSGLVY | -0.442 ± 0.51 |
| QFCMKSTPMSHFR | -0.772 ± 0.61 |
| QFFQPCVKC | 1.06 ± 0.57 |
| QFHFMPWIDMSFSHLVHVYG | -0.741 ± 0.29 |
| QFSYTRIEVVSDVHLVNVVN | 0.373 ± 0.3 |

| Substance | amyloid nucleation score |
| --- | --- |
| QFWHYGF | -1.04 ± 2.4 |
| QGLLPDIYVALSLCGVPGTD | -0.262 ± 0.59 |
| QGLSGDDCLHGNFKFHMSET | -0.243 ± 0.32 |
| QGWSMVWYYSLESEETT | -0.377 ± 0.6 |
| QGYASLGTQRTRPGYGKFGE | 0.382 ± 0.27 |
| QHHLIGMVRSIGEKMLAKNQ | 0.094 ± 0.34 |
| QHKTRQYHVSPVRVTIL | 0.135 ± 0.65 |
| QHWAGIPDLAF | 0.547 ± 0.64 |
| QIFYSFTLYCNRNGWRDVFL | 0.269 ± 0.59 |
| QIWPKAWPLFWPRNRKYANR | -0.077 ± 0.26 |
| QIYKVDGYFQVGILLLSPVP | -1.29 ± 0.95 |
| QKNCT | 1.01 ± 0.34 |
| QKVHANSMM | 0.973 ± 0.9 |
| QKWVFVEVCSCRVSLTNLVL | 0.233 ± 0.35 |
| QLETTLFGNAEACLFSSKGR | 0.522 ± 0.49 |
| QLLSLCLDQTVKRRYFNFRA | -0.073 ± 0.26 |
| QLSDVSRWSFIWLKGGQRST | 0.334 ± 0.84 |
| QLSVVNFKEM | -0.219 ± 0.7 |
| QMSVAG | 1.38 ± 0.28 |
| QMVQYSRKSITFLGRPVLFS | 0.291 ± 0.55 |
| QMYVVMLVGVLFCWGTPYRL | 0.301 ± 0.39 |
| QNGRASVYFTGLAILYILID | 1.02 ± 0.25 |
| QNKSWAG | -0.509 ± 1.7 |
| QNPLMRNYNPRFCHCGLSAP | inactive |
| QPALPSGPVDQS | 0.42 ± 0.35 |

| Substance | amyloid nucleation score |
| --- | --- |
| QPILPSPIRWFEESMDLVWG | -0.542 ± 0.4 |
| QQYSVDSRCTTVRYGLYMDM | 0.662 ± 1.1 |
| QRFWYTGFGSVPIQDIEVGI | 0.328 ± 0.32 |
| QRISWDFSWCRASWMPNLR | 0.062 ± 0.34 |
| QRLCNQWMSDKLQY | 1.84 ± 0.67 |
| QRWLWKRNLDCQRDTSL | 0.514 ± 0.75 |
| QRYKFLCLRRVENFGGYMSA | 2.54 ± 0.24 |
| QSDMGIIP | 0.153 ± 0.47 |
| QSGVNNTVLVCIVQSFSSLM | 5.5 ± 0.082 |
| QSNPSPISNMLNPDCLYKNG | -0.013 ± 0.2 |
| QSSLMLYDERRSNWIKHLAT | -0.232 ± 0.37 |
| QSTMIASMRYSFFACAVLYI | 0.074 ± 0.51 |
| QTDSTVGD | -0.522 ± 1.4 |
| QTRRYTVNCLL | inactive |
| QYCAKSVSFRWCHLSRWLMP | 0.401 ± 0.71 |
| QYMKLGFNPCKTMVVLFLCC | 4.16 ± 0.062 |
| QYTAHMLCLALLYRFEWNEN | 2.24 ± 0.27 |
| QYVMSLITVQQYRSEFSAVM | 0.263 ± 0.25 |
| RACLQRWPNMRITCC | -0.005 ± 1.2 |
| RAELTSTTISTASVFGCGIM | 5.17 ± 0.07 |
| RAGTLLPVLLDKVKRCSKLW | 0.222 ± 0.7 |
| RAKSGLMNGDGYRNVAQGDD | 0.155 ± 0.43 |
| RALALEPNSI | inactive |
| RAPTFMMNLDG | 3.34 ± 0.12 |
| RARDV | 0.167 ± 0.38 |

| Substance | amyloid nucleation score |
| --- | --- |
| RASKFGLLGHMAYSIYHYVM | -0.974 ± 1.7 |
| RASRMHGQGPLKNVWEGLYQ | 0.119 ± 0.98 |
| RASWNMNFSNFFDKMCRIPS | -0.334 ± 0.35 |
| RAVANCVLSLCYWNCCLYRY | -0.343 ± 1.4 |
| RAYTCRCEFAQGFVYNLIFS | 5.4 ± 0.079 |
| RCCLVMCWCLCKNYSN | 5.38 ± 0.049 |
| RCDNLF | 0.037 ± 0.39 |
| RCGCRRVVFDGFIGIGALRA | 0.298 ± 0.6 |
| RCGGSRDSACLANWIQFTMQ | 4.67 ± 0.064 |
| RCGVRLF | -1.31 ± 1.2 |
| RCILRSTSFRAVAWM | 0.771 ± 0.67 |
| RCINGNIYNKSW | 0.18 ± 0.26 |
| RCLRTALCISMSGWCSYSNW | 1.27 ± 0.15 |
| RCMDHCSLDIQVRVLCKVSV | -0.709 ± 0.66 |
| RCNAKWL | -0.426 ± 0.77 |
| RCSCFY | inactive |
| RCSQVGEFHFGPTDARLMGK | 0.245 ± 0.39 |
| RCSSGSRICAMRLLGYSSYI | -0.066 ± 0.75 |
| RCTSSPFVVL | 0.668 ± 0.82 |
| RCYSFRSHRRNFNIYVLSKW | inactive |
| RDEVGIVHRMSEPKRYGGIK | -1.11 ± 1.5 |
| RDGAVFYFMEVRVSYRFLTN | -0.392 ± 0.7 |
| RDGPSK | -0.422 ± 0.33 |
| RDKLYA | -1.2 ± 1.5 |
| RDLAPVLRYVPNESKAGVGV | -0.626 ± 0.53 |

| Substance | amyloid nucleation score |
| --- | --- |
| RDVTCRLYLMLWS | -0.641 ± 1.5 |
| REPACYSKVTLADKYRLVSE | 1.26 ± 0.74 |
| RESVINIR | 1.28 ± 0.46 |
| RFETIDANKVILSVKCRWAK | 2.56 ± 0.17 |
| RFFSGLIVHNLLCLCRPPNP | 6.58 ± 0.078 |
| RFIFIQRVNRVFLQDSWKMV | 6.39 ± 0.075 |
| RFLIGWFFSFLGCFLKRDSW | -0.571 ± 1.6 |
| RFNLCNGFMGIAKNCICIWT | 1.41 ± 0.45 |
| RFNTWFVNYLCHPLYSLEG | 5.55 ± 0.064 |
| RFRRSLLMYYGTTSVGLLRP | 0.664 ± 1.2 |
| RFSDT | -0.568 ± 0.3 |
| RFSGVFSDQLVLSD | -0.713 ± 0.68 |
| RFVCLLIGVSQLPQLRCEYR | -1.17 ± 0.47 |
| RFVWVMSYGPSTYILHVWFV | 0.248 ± 0.39 |
| RFWVYGKGILMVLGAFFCL | 0.07 ± 0.56 |
| RGAPKLCTDIDWARYFNRGL | -0.407 ± 0.4 |
| RGCRGSRQSVGSKR | -0.166 ± 0.31 |
| RGHLLGFMRRLCFIGLR | -0.372 ± 0.64 |
| RGIKCPVSCKIASSRREWWV | 0.789 ± 0.37 |
| RGMKCIMSSKDVGS | -1.13 ± 2.4 |
| RGMSTNSRECHNMCFQVGV | 0.228 ± 0.49 |
| RGNACVT | 0.598 ± 0.34 |
| RGNLAGLVLMNRHGCV | 0.078 ± 0.4 |
| RGSPFGVSM | 5.4 ± 0.091 |
| RGSQTLGCVSGLHHHRFAIL | -1.14 ± 0.63 |

| Substance | amyloid nucleation score |
| --- | --- |
| RGVCSRDVWARLVELTAEMG | 0.459 ± 0.93 |
| RGWGELVVVNHLLRRGGGEG | -0.029 ± 0.69 |
| RGYAVNAGYSVCMYWLGTLL | 0.695 ± 0.53 |
| RHHCKTCASYCFRIFIAEMM | 0.216 ± 0.42 |
| RHSKMVQLRLSTYGVET | inactive |
| RIANQ | -0.086 ± 0.51 |
| RIENDGLEMLGIINQQSCGS | 4.01 ± 0.11 |
| RIGNGVLKDYRLFFFETSFT | -0.727 ± 0.36 |
| RIKRILFFYSVRIWDLSDG | 2.52 ± 0.12 |
| RIKVYALMHRSGGICTFIR | 0.04 ± 0.21 |
| RILGYRIMTNWGVGSYKPGR | -0.41 ± 0.46 |
| RILVVNWVYPSTMNGVSQWS | 2.63 ± 0.2 |
| RILWSLYGGSLFPYVSVGWR | 0.552 ± 0.56 |
| RIMPEKGRNSHWMYIRVQER | 1.12 ± 0.58 |
| RINLYIMFNLLDSGVDLNS | 6.45 ± 0.071 |
| RIRVI | 0.544 ± 0.63 |
| RISRSISVDALMIRAGYLPN | inactive |
| RITHWSGKLAFQTIVTISYL | 1.53 ± 0.41 |
| RKDLEIWYRMRLGEMPLRWM | -0.165 ± 0.33 |
| RKGSGSRLKIYVYVTVTKIG | 0.52 ± 0.93 |
| RKHVVPGKIF | 0.006 ± 0.51 |
| RKSAQYHG | inactive |
